Test: yeast display, Sf9 membrane polyspecificity reagent, FACS + sequencing; frameworks hold sequencing errors
Outline: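 Polyreactivity labels are assigned by the sorting gate from which each nanobody was recovered. The gates were low and high (top ~1%), set on anti-HA fluorescence for expression and streptavidin fluorescence for reagent binding. Before sorting, galactose-induced (36–48 hours) yeast display cells were stained for 1 hour at 4 °C with 10% biotinylated, detergent-solubilized Sf9 membrane reagent.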

| Sequence | polyreactivity (PSR sort gate) |
| --- | --- |
| QVQLVESRGGLVQAGGSLRLSCAASGYTFYGYAMGWYRQAPGKERELVAAISGSGGSTYYADSVKGRFTISRDNAKNTVYLQMNSLKREDTAVYYCNKARYAIYRGDGYDYWGQGTQVTVSS | high polyreactivity |
| QHQLVDSGVCLVQAGRSLRLSCDASGYTFYIYAMGWYTQAPRKERELVATISSSGGGTYYADSVKGRFTISRDNAKNTVYLQMNSLNPEDTAVYYCNADGWYWQAQGYDYWGQGTQVTVSS | low polyreactivity |
| QVQLVESGGGLVQAGGSLRLSCAASGFTFSRYAMGWYRQAPGKERELVAAIDDGGSTYYADSVKGRFTISRDNAKNTVYLQMNSLKPEDTAVYYCNARGYGTLNVRRERMDYWGQGTQVTVSS | high polyreactivity |
| QVQLVESGVGLVQAGGSLRLSCAASGRTFYKNAMGWSRQSPGKERELVAAISRRGGTTYYADSVKGRFTISRDNAKNTVYLQLNSPKPEDTAVYYCAVTRLGPTIGFYYWGQGTQVTVSS | high polyreactivity |
| QEQLQESGSGLVQAGGSLRLSCAASGNIFHDWVMGWYRQAPGKERELVAAISPGAITYYADSVKGRFTISRDNAKNTVYLQTNSLKPEDTAVYYCAAYYIVEYLHGYWGQGTRVTVSS | low polyreactivity |
| QVQLVESGGGLVQAGGSLRLSCAASGRTLQGYAMGWYRQAPGKERELVAAISRGGGSTYADSVKGRFTISRDNAKNTVYLQMNSLKPEDTAVYYCNKKSYYRYYWGQGTQVTVSS | high polyreactivity |
| QVQLVESGGGLVQAGGSLRLSCAASGITFYYNAMGWYRQAPGKERELVAAIRSAGSTYYADSVKGRFTISRDNAKNTVYLQMNSLKPEDTAVYYCAAEDGNTDQVRVYWIMDYWGQGTQVTVSS | low polyreactivity |
| QVQLVESGVGLVQAGGSLRLSCAPSGRIFGTYAMVWYRQAPGKERELVASITDRGDSTYADSVKGRFTISRDNAKNTVYLQMNSLKPEDTAVYYCAADGWWHNFYPGTGLDYWGQGTQVTVSS | low polyreactivity |
| QVQLVESGGGLVQAGGSLRLSCAASGRIFAQYAMGWYRQAPGKERELVAAISRSGGTTYYADSVKGRFTISRDNAKNTVYLQMNSLKPDDTAVYYCAASLRYLYYYWGQGTQVTVSS | high polyreactivity |
| QVQLVESGGGLVQAGGSLRLSCAASGFTFLFNAMGWYRQAPGKERELVADITWSGGSTYYADSVKGRFTISRDNAKNTVYLQMNSLKPEDTAVYYCAASDDWSTPIYYYSVFDYDYWGQGTQVTVSS | high polyreactivity |
| QVQLVESGGGLVQAGGSLRLSCAASGTFHKYAMGWYRQAPGKERELVASISRSGGSTSYADSVKGRFTISRDNAKNTVYLQMNSLKPEDTAVYYCNAYQSSGRYRNSYGYWGQGTQVTVSS | high polyreactivity |
| QVQLVESGGGLVQAGGSLRLSCAASGRIFTKNAMGWYRQAPGKERELVAAISWSTSRTYYADSVKGRFTISRDNAKNTVYLQMNSLKPEDTAVYYCAAVYRLRGAFSRGYWGQGTQVTVSS | high polyreactivity |
| QVQLVESGGGLVQAAGSLRLSCAASVNTFFKNAMGWYRQAPGKERELVAAISKGGGSTYYADSVKGRFTISRDNAKNTVYLQMNSLKPEDTAVYYCAADTFGVYASTYDYWGQGTQVTVSS | high polyreactivity |
| QVQLVESAGGLVQAGGSLRLSCAASGSTFGPYAMGWYRQVPGKERELVAGISYGGGTTFYADSVKGRFTISRDNAKYTVYLQMNSLKPEDTAVYYCAATYRPNRYLEGYWGQGTQVTVSS | high polyreactivity |
| QVQLVESGGGLVQAGGSLRLSCAASGRIFAYYAMGWYRQAPGKERELVAAINRSGVRTYYADSVKGRFTISRDNAMNTVYFQINSLKPEDTAVYYCAAYVVGGEGDYWGQGTQVTVSS | high polyreactivity |
| QVQLVESGGGLVQAGGSLRLSCAASGFTFSVYTMGWYRQAPGNERELVAALRVSSGGTFYADSVKGRFTISRDNAKNTVYLQRNSLKPEDTAVYYCAVDRYTYDPIFSVVRRYDYWGQGTQVTVSS | high polyreactivity |
| QVQLVESGGGLVQGGGSLRLSCAASGSTFAVYDMGWYRPAPGKERELVAAITVSGSSTHYADSVKGRFTISRDNAKNTVYLQMNSLKPEDTAVYYWGQGTQVTVSS | low polyreactivity |
| QVQLVESGGGLVQAGGSLRLSCAASGFTFSYYAMGWYRQAPGKERELVAAISSGGSTYYADSVKGRFTISRDNAKNTVYLQMNSLKPEDTAVYYCNVLNYSSRHYLFSYDYWGQGTQVTVSS | high polyreactivity |
| QVQLVESGGGLVQAGGSLRLSCAASGRIFYYNAMGWYRPAPGKERELVAAINYRGGSTYYADSVKGRFTISRDNAKNTVYFQMNSLKPEDTAVYDCAARYWKDGSTYDYWGQGTQVTVSS | high polyreactivity |
| QVQLVETGGGLVQAGGSLRLSCAASGRIFLKYAMGWYRQAPGKERELVAAISRRGASTYYADSVKGRFTISRDNAKNTVYLQMNSLKPEDTAVYYCNARTSSGMDYWGQGTQVTVSS | high polyreactivity |
| QVQLVESGGGLVQAGGSLRLSSAASGSTFYQYAMGWYRQAPGKERELVAAISWDSGSTYYADSVKGRFTISRDNAKNTVYLQMNSLKPEDTAVYYCAASWYGYYDGYAVEYDYWGQGTQVTVSS | low polyreactivity |
| QVQLVESGGGLVQAGGSLRLSCAASGRTFSLYTMGWYRQAPGKERELVAAISSGDSTNYADSVKGRFTISRDNAKNTVYLQMNSLKPEDTAVYYCAKQQDSTSEFSTSDRRQYDYWGQGTQVTVSS | low polyreactivity |

| Sequence | polyreactivity (PSR sort gate) |
| --- | --- |
| QVQLVESGGGLVQAGGSLRLSCAACGSTFSVHAMGWYRQAPGKERELVAAISWGGTSTYYADSVKGRFTISRDNAKNTVYLQMNSLKPEDTAVYYCAAVSRGKVNTVYYWGQGTQVTVSS | high polyreactivity |
| QVQLVESGGGLVQAGGSLRLSCAASGSTFSPYAMGWYRQAPGKERELVANITISGGSTYYADSVKGRFTISRDNAKNTVYLQMNSLKPEDTAVYFCNADSLIRWLFTVVIFDYWGQGTQVTVSS | low polyreactivity |
| QVQLVESGGGLVQAGGSLRLSCAASGSIFSIYAMGWYRQAPRKERELVAAISSSGRTYYADSVKGRFTISRDNAKNTVYLQMNSQKPVDTAVYYCNRVREGKHYYYWGQGTQVTVSS | high polyreactivity |
| QVQLVESGGGLVQAGGSLRLSCAASGIIFAYYAMGWYRQAPGKERELVGTNYADSVKGRFTISRDNAKNTVFLQMNSLKPEDTAVYYCAVQGYGEYDYWGQGTQVTVSS | low polyreactivity |
| QVQLLESGGGIVKAGGFLRLSCAASGSTFRRYAMGRYREAPGIERELVAAITGRGGSTSYADSVKGRFTISRDNAMNTVYLQMNSLKPEDTSVYYCAADDKYFYPGNGYWGQGTQVTVSS | high polyreactivity |
| QVQLVESGGGIVQAGGSLRLSCAASGRTFAGYAMGWYRQAPGKERELVAGISVDDSTTYYADSVKGRFTISRDNANNTVYLQMISLKPEDTAVYYCNADYIDTFRGFDYWGQGTLVTVSS | low polyreactivity |
| QVQLVESGGGLVQAGGSLRLSCAASGGSFPDNARGWYRQAPGKERELVAAISFSGSSTYADSVKGRFTISRDNAKKTVNLQMNSLKPEDTAVYYCNTDGYIYRYRFDYWGQGTQVTVSS | low polyreactivity |
| QVQLVESGGGLVQAGGSLRLSCAASGGIFYTYAMGWYRQAPGKEREFVAAISRRGSSTYYADSVKGRFTISRDNEKNTVYLQMNSLKPEDTAVYYCAKSYAPYSYANNDYWGQGTQVTVSS | low polyreactivity |
| QVQLVESGGGLVQAGGSLRLSCAASGFIFFPYTMGWYRQAPGKERELVAAITNGGSTSYADSVKGRFTISRDNAKNTVYLQMNSLKPEDTAVYYCAADLGRNLLHTYYYWGQGTQVTVSS | low polyreactivity |
| QVQLVESGGGLVQAGGRLRLSCAASGRIFERYAMGWYRQAPGKERELVATISTSGGSTYYADSVKGRFTISRDNAKNTVYLQMNSLKPEDTAVYYCAAPYQRRRYYYWGQGTKVTVSS | high polyreactivity |
| QVQLVESGGGLVQAGGSLRLSCAASGLIFDPYAMGWYRQAPGKERELVADISSGGSTNYADSVKGRFTISRDNAKNTVYLQMTSLKPEDTAVYYCNKTIILDGYYFSLTLYDSWGQGTQVTVSS | low polyreactivity |
| QVQIVDSGGGLVQAGGSLRLSCAASGRIIRGYAMGWYRQAPGKERELVAAITFSGGSPYYADSVKGRFTISRDNAKNTVYLHMNSLKPEDTAVYYCAAAYGGSSYEYNYWGQGTQVTVSS | low polyreactivity |
| QVQLVESGGGLVQAGGSLRLSCAASGITFRVYVMGGYRQAPGKERELVAAITSGTSTYYADSVKGRFTISRDNAKNTVYLQMNSLKPEDTAVYYCAADWDLFYAVVGFDFDYWGQGTQVTVSS | low polyreactivity |
| QVQLVDSGGGLVQAGGSLRLSCAASGFTFVYNVMGWNIQAPGKERELVAAINAGGGSTYYADSVKGRFTISRDNAKNTVYLQMNSLKPEDTAVYYGNARVRVRVGRNWSSYYYWGQGTQVTVSS | high polyreactivity |
| QVQLVESGGGLVQAGGSLRLSCAASGIIFKYYAMGWYRPAPGKERELVAAITASGGRTYYADSVKGRFTISRDNAKNTVYLQMNSLKPEDTAVYYCAADSRSAYDYWGQGTQVTVSS | high polyreactivity |
| QVQLVESGGGLVQAGGSLRLSCAASGIIFYVYALGWYRQAPGKERELVAAISYTSSTYADSVKGLFTISRDNAKNTVYLQMNSLKPEDTAVYYCNTDYSDGYPAFDFWGQGTQVTVSS | low polyreactivity |
| QLQLVESGGGLVQAGGSLRLSCAASGRTFFRYVMGWYRQAPGKERELVAAISTRGGSTYYADSVKGRFTISRDNAKNTVYLQMNSLKPEDTAVYYCAARFKVRDYSYNYWGQGTQVTVSS | high polyreactivity |
| QVQLVESGGGLVQAGGSLRLSCAASGFTFQEYAMGWYRQAPGKERELVAVISSSGVRTYYADSVKGRFTISRDNAKNTVYLQMNSLKPEDTAVYYCAARRYHYIPSTKGNYWGQGTQVTVSS | high polyreactivity |
| QVQLVESGGGLVQAGGSLRLSCAASGRIFDIYALGWYRQAPGKERELVAAITWRGGSTYYADSVKGRFTISRDNAKNTVYLQMNSLKPEDTAVYYCAVDFITPRGSYYWGQGTQVTVSS | low polyreactivity |
| QVQLVESGGGLVKAGGSLRLSCAASGLTFRVYAMGWYRQAPGKECELVATISRTGSTTYAESVQGRFTISRDNAKNTVYLQMNSLKPEDTAVYYCNARYYFLLWDSLAREYWGQGTQVTVTS | high polyreactivity |
| QVQLVESGGGLVQAGGSLRLSCAASGRIFGYYGRGWYRQAPGKERELVARISGRGGSTYYADSVKGRFTLSRDNAKNTVYLQINSLKPEDTAVYYCNVVFSFWQYYAYDQGDYWGQGTQVTVSS | low polyreactivity |

From the nanobody polyreactivity screen of Harvey et al. (2022)
